Source: patent US20120135461A1, “PRODUCTION OF GLYCOPROTEINS WITH REDUCED O-GLYCOSYLATION COMPRISING THE USE OF AN ALPHA-1,2-MANNOSIDASE” (priority 2010, published 2012)
“Also recorded” adds a separate entry of the source.

B1: Chaetomiun globosum: C. globosum α-1,2-mannosidase, GenBank XP_001227052, SEQ ID NO: 16 (protein, listed as Chaetomium globosum)
chain: LPRLEDGGRPGAGREDSFWSKVPLHYPPDSIRPLPTGLPVQYPPIQTTTFPAEEDQAARGRRVQRQKAVRDVFAKCWASYRKLAWGADELTPVSGGRKDPFGGWSATLVDSLDTLWIMDMKTEFDEAVAAADGINFTHTAVDRVNVFETNIRYLGGFLAAFDLSGDKRLLGKATEVGDMLYKAFDTPSHMPITRWDMRAAIKGAKQVASEGLIAEVGTLSMEFTRLSMLTGDPKWFDLAQRITDDMAAQQDSTAVPGLWPLKVNGQKRIFNSGPDFTLGAMADSAYEYLPKMSAMMGGQLPMYQTMYEKAMDAATKHNLFRPMTPTNEDILIAGDVHARENGMEFEARGQHLTCFLGGLMALGGRLYGREKDVIAGRKLTDGCVWTYKAFPQGIMPESFVTVSCPAGDACEWDEGVWKKEVLRKANKDTDGPESNAEAEVIIKKQRLPQGFTAVFDRAYLLRPEAIESVFVLYRVTGKVELLEAAWDMFTAIDKATSTDLANSAIRDVTSTDKPEAKDSMESFWMAETLKYFYLIFSDPELINLNEYVLNTEAHPFRRLLPSP
B2: Penicillium citrinum: Penicillium citrinum α-1,2-mannosidase, GenBank BAA08275, SEQ ID NO: 8 (protein, listed as Penicillium citrinum)
chain: HPYGETEAVLRSEPKSNQAKADAVKEAFQHAWNGYMKYAFPHDELTPVSNGHADSRNGWGASAVDALSTAVIMGKADVVNAILEHVADIDFSKTSDTVSLFETTIRYLAGMLSGYDLLQGPAKNLVDNQDLIDGLLDQSRNLADVLKFAFDTPSGVPYNNINITSHGNDGATTNGLAVTGTLVLEWTRLSDLTGDEEYAKLSQKAESYLLKPQPSSSEPFPGLVGSSININDGQFADSRVSWNGGDDSFYEYLIKMYVYDPKRFETYKDRWVLAAESTIKHLKSHPKSRPDLTFLSSYSNRNYDLSSQHLTCFDGGSFLLGGTVLDRQDFIDFGLELVDGCEATYNSTLTKIGPDSWGWDPKKVPSDQKEFYEKAGFYISSGSYVLRPEVIESFYYAHRVTGKEIYRDWVWNAFVAINSTCRTDSGFAAVSDVNKANGGSKYDNQESFLFAEVMKYSYLAHSEDAAWQVQKGGKNTFVYNTEAHPISVARN
B3: Aspergillus oryzae: A. oryzae α-1,2-mannosidase, GenBank BAE57653, SEQ ID NO: 14 (protein, listed as Aspergillus oryzae)
chain: YPQFKFEQRVARSNSSESRANAVKEAFVHAWDGYMQYAYPHDELHPISNGVGDSRNGWGASAVDALSTAVIMGNETIVNQILDHIATIDYSKTDDQVSLFETTIRYLGGMLSGYDLLKGPASNLVKDQAKVKTLLDQSQNLADVLKFAFDTPSGIPYNNINITSHGNDGATTNGLAVTGTLVLEWTRLSDLTGDTEYAQLSQKAEDYLLNPSPKSAEPFEGLVGSHINISNGAFADGQVSWNGGDDSFYEYLIKMYVYDPKRFSTYGDRWVKAAESSIKHLASHPEKRPDLTFLASYNDGQYGLSSQHLTCFDGGSFLLGGTVLDRDDFIQFGLDLVKGCHETYNQTLTGIGPESFGWDPKNVPSDQKELYERAGFYISSGAYILRPEVIESFYYAWRITGQEIYREWVWNAFVNINKYCRTDSGFAGLTNVNAANGGGRYDNQESFLFAEVLKYVYLTFAPDNEWQVQRGKGNKFVYNTEAHPVRVAA
B4: Aspergillus saitoi: A. saitoi α-1,2-mannosidase, GenBank BAA08634, SEQ ID NO: 12 (protein, listed as Aspergillus saitoi)
chain: YPHFGSSQPVLHSSSDTTQSRADAIKAAFSHAWDGYLQYAFPHDELHPVSNGYGDSRNGWGASAVDALSTAVIMRNATIVNQILDHVGKIDYSKTNTTVSLFETTIRYLGGMLSGYDLLKGPVSDLVQNSSKIDVLLTQSKNLADVLKFAFDTPSGVPYNNLNITSGGNDGAKTNGLAVTGTLALEWTRLSDLTGDTTYADLSQKAESYLLNPQPKSAEPFPGLVGSNINISNGQFTDAQVSWNGGDDSYYEYLIKMYVYDPKRFGLYKDRWVAAAQSTMQHLASHPSSRPDLTFLASYNNGTLGLSSQHLTCFDGGSFLLGGTVLNRTDFINFGLDLVSGCHDTYNSTLTGIGPESFSWDTSDIPSSQQSLYEKAGFYITSGAYILRPEVIESFYYAWRVTGQETYRDWIWSAFSAVNDYCRTSSGFSGLTDVNAANGGSRYDNQESFLFAEVMKYSYMAFAEDAAWQVQPGSGNQFVFNTEAHPVRVSST

system: O-glycans of α-Her2; experiment: O-mannose chain length analysis by HPAEC-PAD of O-glycans released from α-Her2 from fermented MNS1 strains; type: cell-based, Pichia pastoris

Molecule | O-Man1 (%) | effect on percentage of O-Man1 / O-mannose chain length relative to no MNS1 control
B1 | 89 | reduced O-mannose chain length, but to a lesser extent
B2 | 83 | reduced O-mannose chain length, but to a lesser extent
B3 | 89 | reduced O-mannose chain length, but to a lesser extent
B4 | 86 | reduced O-mannose chain length, but to a lesser extent

system: O-glycosylated α-Her2 heavy chain (Hc); experiment: not given; type: cell-based, Pichia pastoris

Molecule | α-Her2 Hc migration on Western blot relative to non-transformed control
B1 | faster relative to the non-transformed control but not as fast
B3 | migration is increased; also recorded: faster relative to the non-transformed control but not as fast
B4 | faster relative to the non-transformed control but not as fast
